Measured values published in article PMC10397247.

Assays:
4H3070-bN = molecular target: T1, 4H3070-bN; assay: two-hybrid library CCNG1; settings: mean of both orientations;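 further: natural log of median RNA to DNA barcode read ratio; higher means stronger binding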
T1 chain: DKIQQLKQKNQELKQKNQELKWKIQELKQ

4H342-bN = molecular target: T2, 4H342-bN; assay: two-hybrid library CCNG1;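 further: natural log of median RNA to DNA barcode read ratio; higher means stronger binding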
T2 chain: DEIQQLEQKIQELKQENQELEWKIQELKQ

4H3632-bN = molecular target: T3, 4H3632-bN; assay: two-hybrid library CCNG1;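 further: natural log of median RNA to DNA barcode read ratio; higher means stronger binding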
T3 chain: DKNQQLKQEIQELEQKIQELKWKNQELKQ

4H496-bN = molecular target: T4, 4H496-bN; assay: two-hybrid library CCNG1;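 further: natural log of median RNA to DNA barcode read ratio; higher means stronger binding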
T4 chain: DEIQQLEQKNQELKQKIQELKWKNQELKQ

APC222-AA = molecular target: T5, APC222-AA; assay: two-hybrid library CCmax
T5 chain: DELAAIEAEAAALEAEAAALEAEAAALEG

APC2257-AA = molecular target: T6, APC2257-AA; assay: two-hybrid library CCmax; settings: mean of both orientations
T6 chain: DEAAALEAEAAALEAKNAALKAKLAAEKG

APC2375-AA = molecular target: T7, APC2375-AA; assay: two-hybrid library CCmax; settings: mean of both orientations
T7 chain: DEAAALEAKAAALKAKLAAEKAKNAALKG

APC2474-AA = molecular target: T8, APC2474-AA; assay: two-hybrid library CCmax
T8 chain: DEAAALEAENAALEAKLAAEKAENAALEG

APC2543-AA = molecular target: T9, APC2543-AA; assay: two-hybrid library CCmax; settings: mean of both orientations
T9 chain: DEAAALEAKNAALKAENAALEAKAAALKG

APC2556-AA = molecular target: T10, APC2556-AA; assay: two-hybrid library CCmax; settings: mean of both orientations
T10 chain: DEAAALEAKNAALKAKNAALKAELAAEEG

APC2724-AA = molecular target: T11, APC2724-AA; assay: two-hybrid library CCmax; settings: mean of both orientations
T11 chain: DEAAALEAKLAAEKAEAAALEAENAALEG

APC2811-AA = molecular target: T12, APC2811-AA; assay: two-hybrid library CCmax; settings: mean of both orientations
T12 chain: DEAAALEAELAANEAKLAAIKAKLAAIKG

APC2981-AA = molecular target: T13, APC2981-AA; assay: two-hybrid library CCmax; settings: mean of both orientations
T13 chain: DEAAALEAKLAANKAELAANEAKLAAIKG

APC3265-AA = molecular target: T14, APC3265-AA; assay: two-hybrid library CCmax; settings: mean of both orientations
T14 chain: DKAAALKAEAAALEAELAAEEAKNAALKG

APC3323-AA = molecular target: T15, APC3323-AA; assay: two-hybrid library CCmax; settings: mean of both orientations
T15 chain: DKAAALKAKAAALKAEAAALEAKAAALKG

APC3354-AA = molecular target: T16, APC3354-AA; assay: two-hybrid library CCmax; settings: mean of both orientations
T16 chain: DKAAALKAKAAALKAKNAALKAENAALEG

APC3881-AA = molecular target: T17, APC3881-AA; assay: two-hybrid library CCmax; settings: mean of both orientations
T17 chain: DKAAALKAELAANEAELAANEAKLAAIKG

APC4100-AA = molecular target: T18, APC4100-AA; assay: two-hybrid library CCmax; settings: mean of both orientations
T18 chain: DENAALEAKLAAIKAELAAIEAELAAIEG

APC4336-AA = molecular target: T19, APC4336-AA; assay: two-hybrid library CCmax; settings: mean of both orientations
T19 chain: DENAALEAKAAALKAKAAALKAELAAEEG

APC5009-AA = molecular target: T20, APC5009-AA; assay: two-hybrid library CCmax; settings: mean of both orientations
T20 chain: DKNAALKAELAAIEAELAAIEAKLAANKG

APC542-AA = molecular target: T21, APC542-AA; assay: two-hybrid library CCmax
T21 chain: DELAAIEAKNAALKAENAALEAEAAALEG

APC5531-AA = molecular target: T22, APC5531-AA; assay: two-hybrid library CCmax
T22 chain: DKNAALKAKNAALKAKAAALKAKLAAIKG

APC6088-AA = molecular target: T23, APC6088-AA; assay: two-hybrid library CCmax; settings: mean of both orientations
T23 chain: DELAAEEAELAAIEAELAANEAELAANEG

APC7524-AA = molecular target: T24, APC7524-AA; assay: two-hybrid library CCmax; settings: mean of both orientations
T24 chain: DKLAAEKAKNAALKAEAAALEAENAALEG

APC8401-AA = molecular target: T25, APC8401-AA; assay: two-hybrid library CCmax; settings: mean of both orientations
T25 chain: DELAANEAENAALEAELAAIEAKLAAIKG

APC8516-AA = molecular target: T26, APC8516-AA; assay: two-hybrid library CCmax
T26 chain: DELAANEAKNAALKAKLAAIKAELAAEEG

APC9141-AA = molecular target: T27, APC9141-AA; assay: two-hybrid library CCmax; settings: mean of both orientations
T27 chain: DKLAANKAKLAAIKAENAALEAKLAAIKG

APC9182-AA = molecular target: T28, APC9182-AA; assay: two-hybrid library CCmax; settings: mean of both orientations
T28 chain: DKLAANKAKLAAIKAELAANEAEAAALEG

APC9291-AA = molecular target: T29, APC9291-AA; assay: two-hybrid library CCmax; settings: mean of both orientations
T29 chain: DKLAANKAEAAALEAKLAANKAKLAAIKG

APC9806-AA = molecular target: T30, APC9806-AA; assay: two-hybrid library CCmax; settings: mean of both orientations
T30 chain: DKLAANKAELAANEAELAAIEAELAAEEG

P2bHq = molecular target: T31, P2bHq; assay: two-hybrid library CCNG1
T31 chain: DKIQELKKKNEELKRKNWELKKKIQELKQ

P4bHq = molecular target: T32, P4bHq; assay: two-hybrid library CCNG1
T32 chain: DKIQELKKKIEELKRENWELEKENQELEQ

P5bHq = molecular target: T33, P5bHq; assay: two-hybrid library CCNG1
T33 chain: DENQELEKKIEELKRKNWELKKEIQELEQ

P6bHq = molecular target: T34, P6bHq; assay: two-hybrid library CCNG1
T34 chain: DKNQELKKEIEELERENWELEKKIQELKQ

P7bHq = molecular target: T35, P7bHq; assay: two-hybrid library CCNG1
T35 chain: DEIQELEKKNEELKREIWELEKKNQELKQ

P8bHq = molecular target: T36, P8bHq; assay: two-hybrid library CCNG1
T36 chain: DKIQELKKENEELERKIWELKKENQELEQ

P9bHq = molecular target: T37, P9bHq; assay: two-hybrid library CCNG1
T37 chain: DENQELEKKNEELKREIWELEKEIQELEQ

Q: For DKIQQLKQKNQELKQKNQELKWKIQELKQ [4H3070-bN], which interaction score (4H3070-bN) is on record?
A: -1.41

Q: What about the interaction score (4H342-bN) of the same binder?
A: 0.751

Q: And the interaction score (4H3632-bN)?
A: -1.38

Q: And the interaction score (4H496-bN)?
A: -1.31

Q: DELAAIEAEAAALEAEAAALEAEAAALEG [APC222-AA] was tested. Which interaction score (APC222-AA) did it give?
A: -2.62

Q: And the interaction score (APC2257-AA)?
A: -1.71

Q: And the interaction score (APC2375-AA)?
A: -1.53

Q: What about the interaction score (APC2474-AA) of the same binder?
A: -1.83

Q: And the interaction score (APC2543-AA)?
A: -1.8

Q: And the interaction score (APC2556-AA)?
A: -2.32

Q: What about the interaction score (APC2724-AA) of the same binder?
A: -2.15

Q: What about the interaction score (APC2811-AA) of the same binder?
A: -1.59

Q: What about the interaction score (APC2981-AA) of the same binder?
A: -1.93

Q: What about the interaction score (APC3265-AA) of the same binder?
A: -1.62

Q: What about the interaction score (APC3323-AA) of the same binder?
A: -0.292

Q: What about the interaction score (APC3354-AA) of the same binder?
A: -1.41

Q: And the interaction score (APC3881-AA)?
A: -1.61

Q: And the interaction score (APC4100-AA)?
A: -1.75

Q: What about the interaction score (APC4336-AA) of the same binder?
A: -1.82

Q: What about the interaction score (APC5009-AA) of the same binder?
A: -2.08

Q: And the interaction score (APC542-AA)?
A: -1.23

Q: What about the interaction score (APC5531-AA) of the same binder?
A: -1.91

Q: What about the interaction score (APC6088-AA) of the same binder?
A: -1.62

Q: And the interaction score (APC7524-AA)?
A: -2.39

Q: And the interaction score (APC8401-AA)?
A: -1.94

Q: And the interaction score (APC8516-AA)?
A: -1.79

Q: What about the interaction score (APC9141-AA) of the same binder?
A: -1.74

Q: And the interaction score (APC9182-AA)?
A: -1.69

Q: And the interaction score (APC9291-AA)?
A: -1.82

Q: What about the interaction score (APC9806-AA) of the same binder?
A: -1.68

Q: DKIQELKKKNEELKRKNWELKKKIQELKQ [P2bHq] was tested. Which interaction score (P2bHq) did it give?
A: 0.693

Q: And the interaction score (P4bHq)?
A: 0.0617

Q: And the interaction score (P5bHq)?
A: 0.419

Q: And the interaction score (P6bHq)?
A: 1.33

Q: What about the interaction score (P7bHq) of the same binder?
A: 0.668

Q: What about the interaction score (P8bHq) of the same binder?
A: 0.361

Q: What about the interaction score (P9bHq) of the same binder?
A: -1.74
